Earlier results on two substances are cited in publication PMC6722209.

Series [1] concerns the target IgG1 Fc Fc (Homo sapiens) [IgG part: P01857]. Description: ITC and SPR.
For series [2] the target is unchanged. Description: fluorescence anisotropy. For orientation: Fluorescence polarisation rises when a labelled molecule tumbles more slowly, as on binding a larger partner.

TRIM21, sequence (P19474 whole entry): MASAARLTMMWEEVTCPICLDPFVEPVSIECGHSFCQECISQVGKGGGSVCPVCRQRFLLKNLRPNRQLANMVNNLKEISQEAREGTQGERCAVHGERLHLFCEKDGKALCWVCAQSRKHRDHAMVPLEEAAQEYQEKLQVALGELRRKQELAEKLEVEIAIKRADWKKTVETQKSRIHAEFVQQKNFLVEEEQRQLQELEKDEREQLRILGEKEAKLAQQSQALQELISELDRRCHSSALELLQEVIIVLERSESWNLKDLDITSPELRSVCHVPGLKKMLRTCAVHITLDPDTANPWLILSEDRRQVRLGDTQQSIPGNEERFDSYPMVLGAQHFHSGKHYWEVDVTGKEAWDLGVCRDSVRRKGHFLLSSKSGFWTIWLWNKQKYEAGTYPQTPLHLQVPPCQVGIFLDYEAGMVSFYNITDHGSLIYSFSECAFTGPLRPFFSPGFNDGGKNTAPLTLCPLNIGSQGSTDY
TRIM21 PRYSPRY, sequence (P19474 268-465): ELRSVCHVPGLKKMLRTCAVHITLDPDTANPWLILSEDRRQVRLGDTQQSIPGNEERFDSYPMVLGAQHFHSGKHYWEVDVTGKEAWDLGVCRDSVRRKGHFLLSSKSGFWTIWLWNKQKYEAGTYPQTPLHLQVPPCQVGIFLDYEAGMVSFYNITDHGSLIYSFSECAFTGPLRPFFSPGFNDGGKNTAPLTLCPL

Consider TRIM21 PRYSPRY (from UniProt P19474), for which the Kd in series [1] was 175 nM.
In the case of TRIM21 (from UniProt P19474), the dissociation constant (Kd) in series [2] is 0.6 nM.

One may read the Kd as the free concentration of one partner at which half of the binding sites on the other are occupied at equilibrium, for simple one-to-one binding.
